# Test results as given in PMC2650276 (Neuron, 2009).
# Like-named read-outs stand apart in the source and are kept apart here. Where no end group is shown, it is not given here.
# B1: GST-D3RIL3 (R210-Q375) (domain or fragment, rat, UniProt P19020 210-375, looked up)
# chain: RIYIVLRQRQRKRILTRQNSQCISIRPGFPQQSSCLRLHPIRQFSIRARFLSDATGQMEHIEDKQYPQKCQDPLLSHLQPPSPGQTHGGLKRYYSICQDTALRHPSLEGGAGMSPVERTRNSLSPTMAPKLSLEVRKLSNGRLSTSLRLGPLQPRGVPLREKKATQ
# B2: D3RIL3 (R210-Q375), released from GST by thrombin (domain or fragment, rat, UniProt P19020 210-375, looked up)
# chain: B1 chain
# Columns and labels:
# Assay in all cases: pull-down
# [1] = target: His-tagged WT pCaMKIIα (autophosphorylated at T286) (rat, UniProt P11275 1-478, phosphothreonine at T286 (autophosphorylation))
# [2] = target: T1, His-tagged full-length CaMKIIα (M1-H478), wild type (rat, UniProt P11275 1-478)
# [3] = target: T1, His-tagged full-length CaMKIIα …; remark: listed apart in the source
# [4] = target: T1, His-tagged full-length CaMKIIα …; remark: listed apart in the source
# [5] = target: GST-tagged full-length CaMKIIα (M1-H478) (rat, UniProt P11275 1-478)
# GST-tagged full-length CaMKIIα (M1-H478), sequence (P11275 whole entry): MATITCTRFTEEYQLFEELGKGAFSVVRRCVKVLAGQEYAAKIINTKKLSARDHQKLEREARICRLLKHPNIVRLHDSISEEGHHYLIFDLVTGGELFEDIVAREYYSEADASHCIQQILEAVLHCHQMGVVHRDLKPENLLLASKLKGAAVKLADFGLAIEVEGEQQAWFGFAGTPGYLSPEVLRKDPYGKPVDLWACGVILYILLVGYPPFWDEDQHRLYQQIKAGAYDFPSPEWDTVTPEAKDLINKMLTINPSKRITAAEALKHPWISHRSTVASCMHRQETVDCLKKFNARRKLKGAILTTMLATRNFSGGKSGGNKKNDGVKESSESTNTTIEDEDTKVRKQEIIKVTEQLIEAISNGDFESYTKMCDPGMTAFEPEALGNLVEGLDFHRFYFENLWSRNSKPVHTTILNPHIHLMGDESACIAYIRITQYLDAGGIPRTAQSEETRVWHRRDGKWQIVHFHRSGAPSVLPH
# T1 sequence (P11275 whole entry): as above
# His-tagged WT pCaMKIIα (autophosphorylated at T286), sequence (P11275 whole entry): as above
binder,measurement,setting,value
B1,binding result,[1],binds
same,binding result,[2],binds
"RIYIVLRQRQRKRILTRQNSQCISIRPGFP (domain or fragment, rat, UniProt P19020 210-239, looked up) [GST-D3RIL3(R210-P239)]",binding result,[1],binds
same,binding result,[3],binds
"YGRKKRRQRRRRILTRQNSQCISIRP (also: biotin, position not given here) [biotinylated Tat-D3Rr]",binding result,[4],binds
B2,binding result,[5],binds
